Experimental data: patent US12679878B2, “CRF2 receptor agonists and their use in therapy” (SANOFI, priority 2020, dated 2026)
Starred links: 1 amine or outer side, 2 acyl side, 3 side chain; linkers in the order of their positions; H or OH if unused. Non-standard residues stand in square brackets, D forms with d. Groups on a side chain read outwards from the residue. No end group written: not given here. *: point of attachment. C18 diacid = O=C(O)CCCCCCCCCCCCCCCCC(=O)*; γGlu = O=C(O)[C@H](CCC(=O)[*:2])N[*:1]; AEEA = NCCOCCOCC(=O)O; Aib = CC(C)(N)C(=O)O

T1: CRF1R receptor (anti-target) (UniProt P34998 24-415, limits assumed)
T1 sequence (looked up): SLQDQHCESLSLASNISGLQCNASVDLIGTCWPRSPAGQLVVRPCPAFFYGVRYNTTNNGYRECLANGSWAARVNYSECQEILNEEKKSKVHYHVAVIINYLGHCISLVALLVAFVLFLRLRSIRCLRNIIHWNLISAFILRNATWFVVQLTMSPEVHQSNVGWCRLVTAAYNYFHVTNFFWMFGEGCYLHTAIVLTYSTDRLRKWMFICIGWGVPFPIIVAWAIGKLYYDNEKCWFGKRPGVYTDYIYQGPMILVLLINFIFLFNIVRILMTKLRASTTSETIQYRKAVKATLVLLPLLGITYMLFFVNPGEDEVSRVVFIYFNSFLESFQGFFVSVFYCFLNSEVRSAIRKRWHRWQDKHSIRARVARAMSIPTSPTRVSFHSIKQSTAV

B1: peptide of SEQ ID NO: 149 (peptide)
peptide: IVLSLD[dV]PIKLK([AEEA-AEEA-γGlu-C18 diacid])QILLKQERQKK[Aib]REQAETNKRILERV-NH2
modifications: N-terminus assumed
SMILES: CC[C@H](C)[C@H](N)C(=O)N[C@H](C(=O)N[C@@H](CC(C)C)C(=O)N[C@@H](CO)C(=O)N[C@@H](CC(C)C)C(=O)N[C@@H](CC(=O)O)C(=O)N[C@@H](C(=O)N1CCC[C@H]1C(=O)N[C@H](C(=O)N[C@@H](CCCCN)C(=O)N[C@@H](CC(C)C)C(=O)N[C@@H](CCCCNC(=O)COCCOCCNC(=O)COCCOCCNC(=O)CC[C@H](NC(=O)CCCCCCCCCCCCCCCCC(=O)O)C(=O)O)C(=O)N[C@@H](CCC(N)=O)C(=O)N[C@H](C(=O)N[C@@H](CC(C)C)C(=O)N[C@@H](CC(C)C)C(=O)N[C@@H](CCCCN)C(=O)N[C@@H](CCC(N)=O)C(=O)N[C@@H](CCC(=O)O)C(=O)N[C@@H](CCCNC(=N)N)C(=O)N[C@@H](CCC(N)=O)C(=O)N[C@@H](CCCCN)C(=O)N[C@@H](CCCCN)C(=O)NC(C)(C)C(=O)N[C@@H](CCCNC(=N)N)C(=O)N[C@@H](CCC(=O)O)C(=O)N[C@@H](CCC(N)=O)C(=O)N[C@@H](C)C(=O)N[C@@H](CCC(=O)O)C(=O)N[C@H](C(=O)N[C@@H](CC(N)=O)C(=O)N[C@@H](CCCCN)C(=O)N[C@@H](CCCNC(=N)N)C(=O)N[C@H](C(=O)N[C@@H](CC(C)C)C(=O)N[C@@H](CCC(=O)O)C(=O)N[C@@H](CCCNC(=N)N)C(=O)N[C@H](C(N)=O)C(C)C)[C@@H](C)CC)[C@@H](C)O)[C@@H](C)CC)[C@@H](C)CC)C(C)C)C(C)C
B2: peptide of SEQ ID NO: 148 (peptide)
peptide: IVLSLDVPIGLK([AEEA-AEEA-γGlu-C18 diacid])QILLKQERQKK[Aib]REQAETNKRILERV-NH2
modifications: N-terminus assumed
SMILES: CC[C@H](C)[C@H](N)C(=O)N[C@H](C(=O)N[C@@H](CC(C)C)C(=O)N[C@@H](CO)C(=O)N[C@@H](CC(C)C)C(=O)N[C@@H](CC(=O)O)C(=O)N[C@H](C(=O)N1CCC[C@H]1C(=O)N[C@H](C(=O)NCC(=O)N[C@@H](CC(C)C)C(=O)N[C@@H](CCCCNC(=O)COCCOCCNC(=O)COCCOCCNC(=O)CC[C@H](NC(=O)CCCCCCCCCCCCCCCCC(=O)O)C(=O)O)C(=O)N[C@@H](CCC(N)=O)C(=O)N[C@H](C(=O)N[C@@H](CC(C)C)C(=O)N[C@@H](CC(C)C)C(=O)N[C@@H](CCCCN)C(=O)N[C@@H](CCC(N)=O)C(=O)N[C@@H](CCC(=O)O)C(=O)N[C@@H](CCCNC(=N)N)C(=O)N[C@@H](CCC(N)=O)C(=O)N[C@@H](CCCCN)C(=O)N[C@@H](CCCCN)C(=O)NC(C)(C)C(=O)N[C@@H](CCCNC(=N)N)C(=O)N[C@@H](CCC(=O)O)C(=O)N[C@@H](CCC(N)=O)C(=O)N[C@@H](C)C(=O)N[C@@H](CCC(=O)O)C(=O)N[C@H](C(=O)N[C@@H](CC(N)=O)C(=O)N[C@@H](CCCCN)C(=O)N[C@@H](CCCNC(=N)N)C(=O)N[C@H](C(=O)N[C@@H](CC(C)C)C(=O)N[C@@H](CCC(=O)O)C(=O)N[C@@H](CCCNC(=N)N)C(=O)N[C@H](C(N)=O)C(C)C)[C@@H](C)CC)[C@@H](C)O)[C@@H](C)CC)[C@@H](C)CC)C(C)C)C(C)C
B3: peptide of SEQ ID NO: 134 (peptide)
peptide: IVLSLD[dV]PIKLK([AEEA-AEEA-γGlu-C18 diacid])QILLKQERQK[Aib]QREKAEKNKQILAQV-NH2
modifications: N-terminus assumed
SMILES: CC[C@H](C)[C@H](N)C(=O)N[C@H](C(=O)N[C@@H](CC(C)C)C(=O)N[C@@H](CO)C(=O)N[C@@H](CC(C)C)C(=O)N[C@@H](CC(=O)O)C(=O)N[C@@H](C(=O)N1CCC[C@H]1C(=O)N[C@H](C(=O)N[C@@H](CCCCN)C(=O)N[C@@H](CC(C)C)C(=O)N[C@@H](CCCCNC(=O)COCCOCCNC(=O)COCCOCCNC(=O)CC[C@H](NC(=O)CCCCCCCCCCCCCCCCC(=O)O)C(=O)O)C(=O)N[C@@H](CCC(N)=O)C(=O)N[C@H](C(=O)N[C@@H](CC(C)C)C(=O)N[C@@H](CC(C)C)C(=O)N[C@@H](CCCCN)C(=O)N[C@@H](CCC(N)=O)C(=O)N[C@@H](CCC(=O)O)C(=O)N[C@@H](CCCNC(=N)N)C(=O)N[C@@H](CCC(N)=O)C(=O)N[C@@H](CCCCN)C(=O)NC(C)(C)C(=O)N[C@@H](CCC(N)=O)C(=O)N[C@@H](CCCNC(=N)N)C(=O)N[C@@H](CCC(=O)O)C(=O)N[C@@H](CCCCN)C(=O)N[C@@H](C)C(=O)N[C@@H](CCC(=O)O)C(=O)N[C@@H](CCCCN)C(=O)N[C@@H](CC(N)=O)C(=O)N[C@@H](CCCCN)C(=O)N[C@@H](CCC(N)=O)C(=O)N[C@H](C(=O)N[C@@H](CC(C)C)C(=O)N[C@@H](C)C(=O)N[C@@H](CCC(N)=O)C(=O)N[C@H](C(N)=O)C(C)C)[C@@H](C)CC)[C@@H](C)CC)[C@@H](C)CC)C(C)C)C(C)C
B4: peptide of SEQ ID NO: 150 (peptide)
peptide: IVLSLD[dV]PIGLK([AEEA-AEEA-γGlu-C18 diacid])QILLKQERQKK[Aib]RQQAETNKRILERV-NH2
modifications: N-terminus assumed
SMILES: CC[C@H](C)[C@H](N)C(=O)N[C@H](C(=O)N[C@@H](CC(C)C)C(=O)N[C@@H](CO)C(=O)N[C@@H](CC(C)C)C(=O)N[C@@H](CC(=O)O)C(=O)N[C@@H](C(=O)N1CCC[C@H]1C(=O)N[C@H](C(=O)NCC(=O)N[C@@H](CC(C)C)C(=O)N[C@@H](CCCCNC(=O)COCCOCCNC(=O)COCCOCCNC(=O)CC[C@H](NC(=O)CCCCCCCCCCCCCCCCC(=O)O)C(=O)O)C(=O)N[C@@H](CCC(N)=O)C(=O)N[C@H](C(=O)N[C@@H](CC(C)C)C(=O)N[C@@H](CC(C)C)C(=O)N[C@@H](CCCCN)C(=O)N[C@@H](CCC(N)=O)C(=O)N[C@@H](CCC(=O)O)C(=O)N[C@@H](CCCNC(=N)N)C(=O)N[C@@H](CCC(N)=O)C(=O)N[C@@H](CCCCN)C(=O)N[C@@H](CCCCN)C(=O)NC(C)(C)C(=O)N[C@@H](CCCNC(=N)N)C(=O)N[C@@H](CCC(N)=O)C(=O)N[C@@H](CCC(N)=O)C(=O)N[C@@H](C)C(=O)N[C@@H](CCC(=O)O)C(=O)N[C@H](C(=O)N[C@@H](CC(N)=O)C(=O)N[C@@H](CCCCN)C(=O)N[C@@H](CCCNC(=N)N)C(=O)N[C@H](C(=O)N[C@@H](CC(C)C)C(=O)N[C@@H](CCC(=O)O)C(=O)N[C@@H](CCCNC(=N)N)C(=O)N[C@H](C(N)=O)C(C)C)[C@@H](C)CC)[C@@H](C)O)[C@@H](C)CC)[C@@H](C)CC)C(C)C)C(C)C
B5: peptide of SEQ ID NO: 125 (peptide)
peptide: IVLSLDVPIKLK([AEEA-AEEA-γGlu-C18 diacid])QILLEQARQK[Aib]QREQAEKNKRILERV-NH2
modifications: N-terminus assumed
SMILES: CC[C@H](C)[C@H](N)C(=O)N[C@H](C(=O)N[C@@H](CC(C)C)C(=O)N[C@@H](CO)C(=O)N[C@@H](CC(C)C)C(=O)N[C@@H](CC(=O)O)C(=O)N[C@H](C(=O)N1CCC[C@H]1C(=O)N[C@H](C(=O)N[C@@H](CCCCN)C(=O)N[C@@H](CC(C)C)C(=O)N[C@@H](CCCCNC(=O)COCCOCCNC(=O)COCCOCCNC(=O)CC[C@H](NC(=O)CCCCCCCCCCCCCCCCC(=O)O)C(=O)O)C(=O)N[C@@H](CCC(N)=O)C(=O)N[C@H](C(=O)N[C@@H](CC(C)C)C(=O)N[C@@H](CC(C)C)C(=O)N[C@@H](CCC(=O)O)C(=O)N[C@@H](CCC(N)=O)C(=O)N[C@@H](C)C(=O)N[C@@H](CCCNC(=N)N)C(=O)N[C@@H](CCC(N)=O)C(=O)N[C@@H](CCCCN)C(=O)NC(C)(C)C(=O)N[C@@H](CCC(N)=O)C(=O)N[C@@H](CCCNC(=N)N)C(=O)N[C@@H](CCC(=O)O)C(=O)N[C@@H](CCC(N)=O)C(=O)N[C@@H](C)C(=O)N[C@@H](CCC(=O)O)C(=O)N[C@@H](CCCCN)C(=O)N[C@@H](CC(N)=O)C(=O)N[C@@H](CCCCN)C(=O)N[C@@H](CCCNC(=N)N)C(=O)N[C@H](C(=O)N[C@@H](CC(C)C)C(=O)N[C@@H](CCC(=O)O)C(=O)N[C@@H](CCCNC(=N)N)C(=O)N[C@H](C(N)=O)C(C)C)[C@@H](C)CC)[C@@H](C)CC)[C@@H](C)CC)C(C)C)C(C)C
B6: peptide of SEQ ID NO: 126 (peptide)
peptide: IVLSLD[dV]PIKLK([AEEA-AEEA-γGlu-C18 diacid])QILLEQAKQK[Aib]QRAQAEKNKRILERV-NH2
modifications: N-terminus assumed
SMILES: CC[C@H](C)[C@H](N)C(=O)N[C@H](C(=O)N[C@@H](CC(C)C)C(=O)N[C@@H](CO)C(=O)N[C@@H](CC(C)C)C(=O)N[C@@H](CC(=O)O)C(=O)N[C@@H](C(=O)N1CCC[C@H]1C(=O)N[C@H](C(=O)N[C@@H](CCCCN)C(=O)N[C@@H](CC(C)C)C(=O)N[C@@H](CCCCNC(=O)COCCOCCNC(=O)COCCOCCNC(=O)CC[C@H](NC(=O)CCCCCCCCCCCCCCCCC(=O)O)C(=O)O)C(=O)N[C@@H](CCC(N)=O)C(=O)N[C@H](C(=O)N[C@@H](CC(C)C)C(=O)N[C@@H](CC(C)C)C(=O)N[C@@H](CCC(=O)O)C(=O)N[C@@H](CCC(N)=O)C(=O)N[C@@H](C)C(=O)N[C@@H](CCCCN)C(=O)N[C@@H](CCC(N)=O)C(=O)N[C@@H](CCCCN)C(=O)NC(C)(C)C(=O)N[C@@H](CCC(N)=O)C(=O)N[C@@H](CCCNC(=N)N)C(=O)N[C@@H](C)C(=O)N[C@@H](CCC(N)=O)C(=O)N[C@@H](C)C(=O)N[C@@H](CCC(=O)O)C(=O)N[C@@H](CCCCN)C(=O)N[C@@H](CC(N)=O)C(=O)N[C@@H](CCCCN)C(=O)N[C@@H](CCCNC(=N)N)C(=O)N[C@H](C(=O)N[C@@H](CC(C)C)C(=O)N[C@@H](CCC(=O)O)C(=O)N[C@@H](CCCNC(=N)N)C(=O)N[C@H](C(N)=O)C(C)C)[C@@H](C)CC)[C@@H](C)CC)[C@@H](C)CC)C(C)C)C(C)C

What follows are binders tested against T1, CRF1R receptor (anti-target) (assay: cell-based or functional assay).

Row | EC50 [nM] 0% HSA (cAMP, HTRF) | Emax (%) (100% = Sauvagine at 100 nM) | Binder
1 | > 100 nM | 6.6% | B1
2 | > 100 nM | 2.6% | B2
3 | > 100 nM | -8.6% | B3
4 | > 100 nM | 7.2% | B4
5 | > 100 nM | 17.7% | B5
6 | > 100 nM | 36.5% | B6
